“Also recorded” adds a separate entry of the source.
How the values were obtained:
[1] = test system: mouse unilateral ureteral obstruction (UUO) model of kidney fibrosis; assay: Mouse UUO model of kidney fibrosis (Example 32); format: in vivo; conditions: treated one day before UUO; for KIM-1 levels / serum NGAL levels: vs isotype control; for picosirius red staining of kidney, image quantification: isotype 2.65%
Source text: To further evaluate the ability of GAL3-targeted antibodies with the ability to block TIM3-GAL3 assembly to impact fibrosis, we evaluated the impact of humanized IMT001-4 and IMT006-1 in the mouse unilateral ureteral obstruction (UUO) model of kidney fibrosis. Briefly, 8-week-old C57BL/6J male mice were divided into sham, UUO with HuIgG4−, and UUO with HuIMT001-4, HuIMT006-1, and UUO with metformin-treatment. HuIgG4, HuIMT001-4 and HuIMT006-1 were each administered by intraperitoneal route at 10 mg/kg Q2Dx3 whereas metformin (500 mg/kg/day) was administered to mice dissolved in drinking water. In some settings therapeutic antibodies or metformin was administered 1 day before UUO, whereas in other experiments therapeutic antibodies or metformin was administered 1 day after UUO. After 7 days of UUO surgery, mice were sacrificed, left kidney was harvested and fixed with 4% paraformaldehyde for immunohistochemistry (IHC) and blood was collected in Heparin-EDTA tubes for blood biochemistry analysis. Levels of plasma mouse TIM-1/KIM-1/HAVCR were measured using a commercial ELISA kit (Catalog #MKM100; R&D Systems, Minneapolis, Minn.) according to the protocol provided by the manufacturer. Levels of plasma mouse Lipocalin-2/NGAL were measured using a commercial ELISA kit (Catalog #DY1857; R&D Systems, Minneapolis, Minn.) according to the protocol provided by the manufacturer. 5 um sections of fixed kidney specimens were produced and processed for picosirius red staining as described for liver specimens above.
To evaluate the robustness of TIM3-GAL3 blocking antibodies in reducing kidney fibrosis, the ability of mIMT001 to inhibit fibrosis when administered one day after UUO surgery was evaluated. Following UUO surgery and treatment with isotype or control antibodies, kidney specimens were harvested and stained by IHC for Collagen 1a1 (Col1a1), a marker of kidney fibrosis.

[2] = biological target: T1, association of GAL3 and TIM3 (Homo sapiens, UniProt P17931); assay: GAL3-TIM3 blocking ELISA (Examples 24, 27); format: binding; conditions: for GAL3-TIM3 Blocking @ 3 ug/mL: 3 ug/mL antibody
T1 construct: full-length human Galectin-3 protein (Acro Biosystems, GA3-H5129); linker-spaced 6-histidine tag; purchased Acro Biosystems GA3-H5129 (Gal3); TM3-H5229 (TIM-3)
Description: Positively scoring wells were evaluated for the ability to block association of GAL3 and TIM3. To identify GAL3-targeted antibodies with the ability to block the interaction of GAL3 and TIM3, purified GAL3 and TIM3 proteins were incubated in the presence of GAL3-immunization hybridoma supernatants described above, or without antibody, and protein interaction was evaluated by ELISA. Human Galectin-3 protein (Acro Biosystems, GA3-H5129) was diluted in PBS (Corning, 21-030-CM) to a concentration of 3 μg/ml and added to the wells of a 96-well ELISA plate (Thermo Fisher, 44-2404-21). After incubating the plate at 4° C. overnight, the plate was washed three times with PBST (PBS with 0.05% Tween 20 [VWR, 0777]). The plate was then blocked for an hour with 2% BSA (EMD Millipore, 126609) in PBST at room temperature with gentle rocking. Thereafter, the 2% BSA in PBST was discarded and antibody or inhibitor (3-fold dilutions beginning at 20 μg/ml, 60 μg/ml, or 180 μM) in 2% BSA in PBST was added to the wells. Afterwards, 2 μg/ml of human TIM3 (Aero Biosystems, TM3-H5229) in 2% BSA in PBST was added to the antibody or inhibitor in the wells in a 1:1 ratio. The plate was incubated for an hour at room temperature with gentle rocking. Thereafter, the plate was washed three times with PBST, and 0.3 μg/ml of human TIM3 Biotinylated Antibody (R&D Systems, BAF2365) in 2% BSA in PBST was added to the wells. The plate was incubated for an hour with gentle rocking and then washed three times with PBST. Avidin-HRP (1:2000) was then added to the wells. The plate was incubated at room temperature for an hour with gentle rocking and then washed three times with PBST. TMB substrate (Thermo Scientific, 34029) was then added to each well. The reaction was stopped with 1M HCl (JT Baker, 5620-02) and read using a plate reader (Molecular Devices) at absorbance of 450 nm.

Galectin-3 = Galectin-3 (Homo sapiens, UniProt P17931); assay: SPR (BiacoreT200) binding affinity; conditions: 25° C., read-out: hGal-3 KD
Description: GAL3-binding antibodies were evaluated for their binding affinity by SPR. Kinetics experiments were performed on BiacoreT200 at 25° C. in high performance mode. Ligand proteins, purified antibodies were captured onto a CM5 chip coupled with anti-human Fc or anti-mouse Fc antibody, three antibodies at a time onto flow cell #2, 3, and 4, respectively, while flow cell #1 was used as reference. The analyte Galectin-3 in HBS-EP buffer was injected over all four flow cells at concentrations of 100, 50, 25, 12.5, 6.25, 3.125 and 0 nM at a flow rate of 30 μL/min. The complex was allowed to associate and dissociate for 240 and 300 seconds, respectively. The surfaces were regenerated with a 30 second injection of 10 mM Glycine pH 1.7 (flow rate 30 μL/min). The data were fit to a simple 1:1 interaction model using the global data analysis option available within BiacoreT200 Evaluation software V2.0. The affinity of Gal3 monoclonal antibodies was confirmed to be […] 30 nM for all antibodies studied (Table 24.1). Antibodies with affinity less than 2E-7 were selected for further characterization.

hGal3 peptide = assay: Gal3 peptide library ELISA (Example 25); format: binding, human; conditions: for Epitope Mapping: hGal3 peptide No. bound; for Gal3 peptide bound: peptide array ELISA
Description: To identify the epitopes to which Gal3 antibodies with and without Gal3-TIM3 blocking activity bound, a library of 20 amino acid peptides representing portions of Gal3, summarized in Table 24.1, was produced and the ability to bind Gal3 antibodies was evaluated by ELISA.
At least 2 μg/ml of hGal3 peptide in 50 μl of PBS or 0.1 μg/ml of full-length human Gal3 protein (GenScript) and human Galectin-3 protein (Acro Biosystems, GA3-H5129) were diluted in PBS (Corning, 21-030-CM) to concentrations of at least 2 μg/ml or 0.1 μg/ml, respectively, and added to the wells of a 96-well ELISA plate (Thermo Fisher, 44-2404-21). After incubating the plate at 4° C. overnight, the plate was washed three times with PBST (PBS with 0.05% Tween 20 [VWR, 0777]). The plate was then blocked for an hour with 2% BSA (EMD Millipore, 126609) in PBST at room temperature with gentle rocking. Thereafter, the 2% BSA in PBST was discarded and human Galectin-3 hybridoma supernatants or antibodies were diluted in 2% BSA in PBST to concentrations of at least 0.1 μg/ml and added to the wells. The plate was incubated for an hour at room temperature with gentle rocking and then washed three times with PBST. Afterwards, Goat Anti-Mouse IgG-HRP (Jackson ImmunoResearch, 115-036-1461) or Goat Anti-Rat IgG HRP (abcam, ab205720) diluted in 2% BSA in PBST (1:4000) were added to the wells. The plate was incubated for 30 minutes to 1 hour at room temperature with gentle rocking and then washed three times with PB ST. TMB substrate (Thermo Scientific, 34029) was then added to each well. The reaction was stopped with 1M HCl (JT Baker, 5620-02) and read using a plate reader (Molecular Devices) at absorbance of 450 nm.

human Gal3-His = human Gal3-His (Homo sapiens, UniProt P17931); assay: Antibody binning by biolayer interferometry (Gator); format: binding; conditions: antibody competition
Description: To determine whether Gal3-binding antibodies with Gal3-TIM3 blocking activity bind to the same or overlapping regions of the Gal3 molecule, antibody binning assays were performed to assess the ability of antibodies to simultaneously bind Gal3. Amine-reactive probes were loaded onto a Gator biosensor (Probe Life, Palo Alto, Calif.), equilibrated in dH20 for 60 seconds, dipped into 100 μl EDC 0.2M/NHS 0.05M activation buffer for 30 seconds, then dipped into a solution of […] human Gal3-His in 10 mM NaOAc buffer, pH 5 until binding was saturated, and quenched in 1 M ethanolamine pH 8.5 for 300 seconds. Following Gal3-His loading, tips were dipped in 20 μg/mL saturating antibody, then successively dipped into 5 μg/mL competing antibody.

T1 sequence (P17931 2-250 limits assumed): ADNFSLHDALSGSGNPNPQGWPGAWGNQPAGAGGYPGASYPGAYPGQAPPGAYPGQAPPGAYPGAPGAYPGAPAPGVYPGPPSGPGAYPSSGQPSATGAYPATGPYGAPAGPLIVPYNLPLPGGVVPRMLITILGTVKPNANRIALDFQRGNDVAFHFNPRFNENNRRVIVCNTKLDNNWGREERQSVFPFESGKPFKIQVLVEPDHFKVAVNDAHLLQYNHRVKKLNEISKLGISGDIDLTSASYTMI
Sequence of Galectin-3 (P17931 whole entry): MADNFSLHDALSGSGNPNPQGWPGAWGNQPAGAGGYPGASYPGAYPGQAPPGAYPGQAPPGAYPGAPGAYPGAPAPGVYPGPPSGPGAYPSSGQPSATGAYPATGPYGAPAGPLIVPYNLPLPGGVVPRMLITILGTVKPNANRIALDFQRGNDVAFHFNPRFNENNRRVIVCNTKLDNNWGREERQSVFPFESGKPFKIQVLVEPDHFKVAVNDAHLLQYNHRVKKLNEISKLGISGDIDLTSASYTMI
Sequence of human Gal3-His (P17931 whole entry): as above

| IC50 ([2]; titration series, purified GAL3 and TIM3) [nM] | Kd (Galectin-3) [nM] | GAL3-TIM3 Blocking @ 3 ug/mL [2] [%] | assembly of GAL3 and TIM3, % of levels observed in the absence of a GAL3-targeted antibody ([2]; 3 μg/mL (FIG. 24)) | Bin (human Gal3-His) | Molecule | picosirius red staining of kidney, qualitative [1] | KIM-1 levels [1] | serum NGAL levels [1] | picosirius red staining of kidney, image quantification [1] [%] | Epitope Mapping (hGal3 peptide) | Gal3 peptide bound (hGal3 peptide) |
| --- | --- | --- | --- | --- | --- | --- | --- | --- | --- | --- | --- |
|  |  |  |  |  | CN(C)C(=N)N=C(N)N [metformin, reference compound] | substantial reductions in picosirius red staining | the reduction was not statistically significant | significantly impact NGAL levels | 1.83 |  |  |
| 26.5 |  |  |  |  | IMT006-1: humanized anti-Gal3 antibody derived from 4A11.2B5 (antibody, V domains shown, VH of IMT006-1; VL of IMT006-1, humanized anti-Gal3 antibody derived from 4A11.2B5) VH: QVQLVQSGAEVKKPGASVKVSCKASGYSFTNYYMHWVRQAPGQGLEWMGWIYPGSGNTNYNEKFQGRVTMTADTSISTAYMELSRLRSDDTAVYYCSTAPGGFDVWGQGTTVTVSS VL: DIVMTQTPLSLSVTPGQPASISCKSSKSLLHSDGITYLYWYLQKPGQSPQLLIYRMSNLASGVPDRFSGSGSGTDFTLKISRVEAEDVGVYYCAQMLEFPLTFGQGTKLEIK | substantial reductions in picosirius red staining | significantly reduced | significant reductions in serum NGAL levels | 1.26 |  |  |
|  | 2.53 | 0 |  |  | 13G4.2F8: murine anti-Gal3 antibody (antibody, V domains shown) VH: QVQLQQPGAELVKPGASVKLSCKASGYTFTSYWMHWVKQRPGQGLEWIGMIHPNSGSTDYNEKFKNKATLNVDKSSSTAYIQLSSLTSEDSAVYYCTRWGIYYYARDYWGQGTTLTVSS VL: DIVMTQSQKFMSTSVGERVSITCKASQNVGTNVAWYQQKAGQSLELLIYGASNRHTGVPDRFTGSGSGTDFTLTITNVQSEDMTNYFCEQYSNFPLTFGAGTKLELK |  |  |  |  | Non-linear |  |
|  | 10.2 | 100 | less than 5% | 3 | 846.2H3: murine anti-Gal3 antibody (antibody, V domains shown) VH: QIQLVQSGPELKKPGETVKISCKASGYTFTNYGMNWVKQAPGKGLKWMGWINTYTGEPSYADDFKGRFAFSLETSASTAYLQINNLKNEDMATYFCARWGGYDGDYYAMDYWGQGTSVTVSS VL: NIMMTQSPSSLAVSAGEKVTMSCKSSQSVLYSSNQKNYLAWYQQKPGQSPKLLIYWASTRESGVPDRFTGSGSGTDFTLTISSVQPEDLAVYYCHQYLSSLTFGAGTKLELK |  |  |  |  | 6 | peptide 6 |
|  | 8.2 | 35 |  |  | 13A12.2E5: murine anti-Gal3 antibody (antibody, V domains shown) VH: QIQLVQSGPELKKPGETVKISCKTSGYKFKTYVMSWVKQAPGKALKWMGWINTYSGVPTYADDFKGRFAFSLETSASTAYLEIINLKNEDTATYFCARDGNYGDPMDYWGQGTSVTVSS VL: DVVMTQTPLTLSVAIGQPASISCKSSQSLLYTNGKTYLNWLLQRPGQSPKRLIYLLSKLDSGVPDRFSASGSGTDFTLKISRVEAEDLGVYYCLQSTHFPLTFGAGTKLEMK |  |  |  |  |  | peptide 4; also recorded: peptide 6 |
|  | 0.753 | 86 |  | 3 | 2D10.2B2: murine anti-Gal3 antibody (antibody, V domains shown) VH: QVQLQQSGPELVKPGASVKISCKASGYTFTDYYINWVKQRPGQGLEWIGWIYPGSNDTKYNEKFKGKATLTVDTSSSTAYMQLGSLTSEDSAVYFCANYFGCSGWFFDVWGTGTTVTVSS VL: DIVMTQAAFSNPVTLGTSASISCRSSKSLLHSDGITYLYWYLQRPGQSPQLLIYRMSNLASGVPDRFSGSGSGTDFTLRISRVEAEDVGVYYCAQMIEFPLTFGAGTILELK |  |  |  |  | 6 | peptide 6 |

Reference: patent publication US20220380473A1, “ANTI-GAL3 ANTIBODIES AND USES THEREOF” (TrueBinding, Inc., priority 2019, published 2022)
